# Experiments:
# [1] = test system: methylated casein and monodansylcadaverine; assay: Transglutaminase activity of crushed cell supernatant of transformed Escherichia coli (pCGTG4E); assay type: biochemical; details: cultivation temp. 26° C.; control: 1.2 μg protein
# Source text: Then the transglutaminase activity of the crude extract was investigated by an activity-detection method which made use of an increase in the intensity of fluorescent light (the fluorescent intensity observed at 480 nm while exciting with the light rays of 350 nm) due to the linkage of monodansylcadaverine to methylated casein as an indication. This activity-detection method is the method disclosed in Nippon Suisan Gakkaishi, 1991, 57, pp. 1203-1210 which is slightly modified. More specifically, 20 μl of each crude extract was added to 2 ml of a solution comprising 50 mM Tris-HCl buffer (pH 8.5), 1 mg/ml methylated casein, 15 μM monodansylcadaverine and 10 mM calcium chloride, followed by stirring and keeping warm at 37° C. for 20 minutes. After the reaction, 100 μl of 500 mM EDTA solution was added to the reaction system and each reaction solution was inspected for the intensity of emitted fluorescent light using a fluorophotometer (Shimadzu RF-1500, available from Shimadzu Corporation).
# The colony of the transformant (FERM BP-4962) thus obtained was inoculated on 50 ml of LB culture medium (comprising 10 g/l of trypton, 5 g/l of yeast extract and 10 g/l of NaCl (pH 7.0)) supplemented with 50 mg/l of ampicillin and 10 mM of IPTG contained in a Sakaguchi flask, followed by cultivation at 26° C. for 21 hours and collection of the bacterial cells from the culture medium. […]
# [2] = test system: dimethylated casein and monodansylcadaverine; assay: Effect of NaCl and Ca2+ on enzyme activity; assay type: biochemical; details: increasing NaCl concentration
# [3] = test system: methylated casein and monodansylcadaverine; assay: Transglutaminase activity of crushed cell extract of transformed Saccharomyces cerevisiae; assay type: biochemical; details: 0.35 ml supernatant, GAL1 induced; control: 1.2 μg protein
# Description: Then the transglutaminase activity of the crude extract was investigated by an activity-detection method which made use of an increase in the intensity of fluorescent light (the fluorescent intensity observed at 480 nm while exciting with the light rays of 350 nm) due to the linkage of monodansylcadaverine to methylated casein as an indication. […] More specifically, 20 μl of each crude extract was added to 2 ml of a solution comprising 50 mM Tris-HCl buffer (pH 8.5), 1 mg/ml methylated casein, 15 μM monodansylcadaverine and 10 mM calcium chloride, followed by stirring and keeping warm at 37° C. for 20 minutes. After the reaction, 100 μl of 500 mM EDTA solution was added to the reaction system and each reaction solution was inspected for the intensity of emitted fluorescent light using a fluorophotometer (Shimadzu RF-1500, available from Shimadzu Corporation).
# The transformant was first inoculated on 50 ml of a glucose synthesis minimum medium (prepared by adding 2% glucose and 50 mg/ml of histidine to the foregoing synthesis minimum medium) contained in a Sakaguchi flask and cultivated at 30° C. for 24 hours by shaking culture to increase the number of the cells. […]
# [4] = test system: methylated casein and monodansylcadaverine; assay: Transglutaminase activity of yeast crushed cell extract while changing the NaCl concentration; assay type: biochemical; details: control: 1.2 μg protein
# Source text: The crushed cell extract of the foregoing Saccharomyces cerevisiae INVSC2/pCGTG4S AJ14697 (FERM BP-4964) was inspected for the transglutaminase activity while changing the NaCl concentration in the reaction solution by way of comparison (Table 7).
Increase in Fluorescent Intensity (increase in fluorescent intensity) (dimethylated casein),Molecule,Increase in Fluorescent Intensity [1],effect of NaCl concentration on enzyme activity (in words) [2],Increase in Fluorescent Intensity [3],Increase in Fluorescent Intensity [4]
46.6,recombinant type transglutaminase of Crassostrea gigas expressed in Saccharomyces cerevisiae INVSC2/pCGTG4S (enzyme),–,–,–,–
–,"TGase of Cavia porcellus: TGase originated from Cavia porcellus (available from Takara Co., Ltd.), used as control (protein) AEDLILERCDLQLEVNGRDHRTADLCRERLVLRRGQPFWLTLHFEGRGYEAGVDTLTFNAVTGPDPSEEAGTMARFSLSSAVEGGTWSASAVDQQDSTVSLLLSTPADAPIGLYRLSLEASTGYQGSSFVLGHFILLYNPRCPADAVYMDSDQERQEYVLTQQGFIYQGSAKFINGIPWNFGQFEDGILDICLMLLDTNPKFLKNAGQDCSRRSRPVYVGRVVSAMVNCNDDQGVLQGRWDNNYSDGVSPMSWIGSVDILRRWKDYGCQRVKYGQCWVFAAVACTVLRCLGIPTRVVTNFNSAHDQNSNLLIEYFRNESGEIEGNKSEMIWNFHCWVESWMTRPDLEPGYEGWQALDPTPQEKSEGTYCCGPVPVRAIKEGHLNVKYDAPFVFAEVNADVVNWIRQKDGSLRKSINHLVVGLKISTKSVGRDEREDITHTYKYPEGSEEEREAFVRANHLNKLATKEEAQEETGVAMRIRVGQNMTMGSDFDIFAYITNGTAESHECQLLLCARIVSYNGVLGPVCSTNDLLNLTLDPFSENSIPLHILYEKYGDYLTESNLIKVRGLLIEPAANSYVLAERDIYLENPEIKIRVLGEPKQNRKLIAEVSLKNPLPVPLLGCIFTVEGAGLTKDQKSVEVPDPVEAGEQAKVRVDLLPTEVGLHKLVVNFECDKLKAVKGYRNVIIGPA",4.3,did not show any increase,3.4,3.5

# Reference: patent publication US5736356A, “Transglutaminase originating from Crassostrea gigas” (Ajinomoto Co., Inc., priority 1994, dated 1998)
